According to patent publication CN113929783A (FUZHOU MAIXIN BIOTECHNOLOGY DEV CO LTD, dated 2022):

Target: T1, 人CD99蛋白 (组织切片中表达) (human, UniProt P14209 23-185)
T1 construct: whole, on cells
T1 sequence (looked up): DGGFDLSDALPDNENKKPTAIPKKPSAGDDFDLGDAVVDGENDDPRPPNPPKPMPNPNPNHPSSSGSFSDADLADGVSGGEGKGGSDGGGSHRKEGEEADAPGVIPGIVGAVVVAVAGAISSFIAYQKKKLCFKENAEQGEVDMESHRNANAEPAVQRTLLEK
Test: IHC on 8 ovarian granulosa cell tumours and 8 primitive neuroectodermal tumours

- binding result: binds
B1: 抗CD99蛋白单克隆抗体(10D2A10F9) (antibody, V domains shown)
VH: EVQLQQSGAELVKPGASVKLSCTASGFNIKDTYMHWVKQRPEQGLEWIGRIDPANGNTKYDPKFQGKATITADTSSNTAYLQLSSLTSEDTAVYYCGRRGFAYWGQGTLVTVSA
VL: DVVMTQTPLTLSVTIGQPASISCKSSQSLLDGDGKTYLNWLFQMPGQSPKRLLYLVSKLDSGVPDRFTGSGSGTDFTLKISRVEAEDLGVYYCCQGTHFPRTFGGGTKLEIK
notes: also called CGMCC NO.22316
